According to patent publication US20170283484A1:

Experiments:
[1] = molecular target: HCV E2 envelope glycoprotein (hepatitis C virus) (UniProt P27958); assay: ELISA of E2 on AP33 alanine mutants
[2] = molecular target: AP33 antibody (wild type mouse monoclonal); assay: peptide inhibition ELISA: antibody pre-incubated with peptide, then transferred to E2-coated plates (competitor: E2) [panel AP33]
Sequence of AP33 antibody (wild type mouse monoclonal) (VH, as listed by the source, chain 1 of 2): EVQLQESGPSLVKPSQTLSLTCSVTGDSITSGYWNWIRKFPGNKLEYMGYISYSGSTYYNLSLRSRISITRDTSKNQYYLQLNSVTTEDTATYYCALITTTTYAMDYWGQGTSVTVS
Sequence of AP33 antibody (wild type mouse monoclonal) (VL, as listed by the source, chain 2 of 2): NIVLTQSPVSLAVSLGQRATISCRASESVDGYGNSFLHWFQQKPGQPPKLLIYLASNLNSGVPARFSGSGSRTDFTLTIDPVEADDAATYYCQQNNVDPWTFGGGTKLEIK

Sequence of HCV E2 envelope glycoprotein (hepatitis C virus) (P27958 384-746 limits assumed): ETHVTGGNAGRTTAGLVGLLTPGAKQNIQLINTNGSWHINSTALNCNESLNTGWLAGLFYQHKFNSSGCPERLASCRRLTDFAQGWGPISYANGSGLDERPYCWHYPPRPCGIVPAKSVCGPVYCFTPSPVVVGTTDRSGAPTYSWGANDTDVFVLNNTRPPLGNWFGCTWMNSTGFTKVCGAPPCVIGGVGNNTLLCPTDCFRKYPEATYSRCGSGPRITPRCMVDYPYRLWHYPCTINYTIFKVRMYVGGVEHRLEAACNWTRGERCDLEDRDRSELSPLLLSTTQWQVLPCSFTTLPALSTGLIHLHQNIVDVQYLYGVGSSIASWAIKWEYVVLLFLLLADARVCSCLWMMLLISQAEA

| Substance | reduction of binding relative to WT AP33 [1] | IC50 (read off the curve) [2] |
| --- | --- | --- |
| AP33 mutant FL32A (antibody) | 90% | – |
| AP33 mutant IH95A (antibody) | 90% | – |
| AP33 mutant NL91A (antibody) | 90% | – |
| AP33 mutant WL96A (antibody) | 90% | – |
| AP33 mutant YH33A (antibody) | 90% | – |
| AP33 mutant YH58A (antibody) | 90% | – |
| peptide corresponding to the WT AP33 epitope (aa residues 412-424 of E2) (from UniProt P27958 412-424) | – | 0.1 µg/mL |
